Test results published in paper PMC10661118.

Legend:
[1] = IRBP-SEAP reporter in HeLa, normalised to EV; conditions: glycan lost; control: WT OTX2, untreated
[2] = DSP crosslink, soluble vs pellet fractions, WB, HeLa; conditions: control: DMSO vehicle

Substance | other: transcriptional activity [1] | other: solubility (aggregation) ([2]; glycan lost) | other: solubility (aggregation) ([2]; glycan gained)
OTX2: OSMI4 | no change | decreases | –
OTX2: Thiamet-G | – | – | increases
